From the nanobody polyreactivity screen of Harvey et al. (2022)

Test: yeast display, Sf9 membrane polyspecificity reagent, FACS + sequencing; frameworks hold sequencing errors
Procedure, shortened: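 Nanobodies from a synthetic yeast display library (Saccharomyces cerevisiae BJ5465), induced 36–48 hours with galactose, were stained 1 hour at 4 °C with 10% biotinylated, detergent-solubilized Sf9 membrane reagent, enriched on streptavidin microbeads, then FACS-sorted. Anti-HA (expression) and streptavidin (reagent binding) fluorescence set low and high (top ~1%) gates. Polyreactivity labels come from the gate of origin. Genes were colony-PCR amplified, MiSeq 2 × 250 sequenced and filtered by CDR length.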

Sequence | polyreactivity (PSR sort gate)
QVQLVESGVGLVQAGGSHRLSCAASGSIFGFYVMGWYRQAPGKERELVAAISRGGTRTYYADSVKGRFTISRDNAKNTVYLQMNSLKPEDTAVYYCAKYDGGSGTGPRSDYWGQGTQVTVSS | high polyreactivity
QVQLVESGVGLVQAGGSLLLICAASGRIFGANAMGLYRQAPGKERELVAAISRTGGSTNYADSVKGRFTISRDNAINTVFLQMYSLKPEDTAVYYCNAVYRYAHPMEYWGQGTQVTVSS | high polyreactivity
QVQLVESGVGLVQAGGSLLLSCAASGFISGSYAIGWYRQAPGKERELVADISRRGSSTYYADSVKGRFTISRDNAKNTVYLQMNSLKPEDTAVYVCNAVPYGNGAMDYWGQGTQVTVSS | high polyreactivity
QVQLVESGVGLVQAGGSLRLICAASGSTFQPNVMGWYRQAPGKERELDAAIRGSSGNTYYADSVKGRFTISRDHAKNTVYLQMNSLKPEDTAVYYCAALFLFKTSSPYRYYYWGQGTQVTVSS | high polyreactivity
QVQLVESGVGLVQAGGSLRLICAASGSTFYRNAMGWYRHAPGKERELVAGISRRGGSTYYADSVKGRFTISRDIAKNRVYLQMNSLIPEDTAVYYCNADYPGIPHNDYWGQGTQVNVSS | low polyreactivity
QVQLVESGVGLVQAGGSLRLSCAASGFIFPYYTMGWFRPAPGKERELVAAINVSGGSTYYADSVKGRFTISRDNAKNTVYVQMNSLKPEDTAVYYCAAVGGRFVGRSTMDYWGQGTQVTVSS | low polyreactivity
QVQLVESGVGLVQAGGSLRLSCAASGFIFYNYAMGWYRQAPGKERELVASITSGGGTNYADSVKGRFTISRDNAKNTVYLQMNSLKPEDTAVYYCAVRGRGRFNGYGYWGQGTQVTVSS | high polyreactivity
QVQLVESGVGLVQAGGSLRLSCAASGFTFRRYAMGWYRQAPGKERELVAAISIRGGRTYYADSVKGRFTISRDNAKNTVYLQMNSLKPEDTAVYYCAADGVYALDVESDSWGQGTQVTVSS | high polyreactivity
QVQLVESGVGLVQAGGSLRLSCAASGFTFSYYAMGWYRKAPGKERELVAGITTGGGTNYADSVKGRFTISRDNAKNTVYLQMNSLKPEDPAVYYCNAVGAHWVSYSSPVRFDYWGQGTQVTVSS | low polyreactivity
QVQLVESGVGLVQAGGSLRLSCAASGFTFYSNAMGWYRQAPGKERELVAAITGRVGRTYYADSVKGRFTISRDNAKNTVYLLMNSLKPEDTAVYYCAAVYQVSTWGGRYYFRQGYDYWGQGTQVTVSS | high polyreactivity
QVQLVESGVGLVQAGGSLRLSCAASGIIFFFYAMGWYIQAPGKERELVAAISDDGVSTDYADSVKGRFTISRDNAKNTVYLQMNSLKPEDTAVYYCSAKNERVYPWFSFGYWGQGTQVTVSS | low polyreactivity
QVQLVESGVGLVQAGGSLRLSCAASGIIFLENAMGWYRQAPGKERELVAGISSGGNTNYADSVKGRFTISRDNAKNTDYLQMNSLKPEDTAVYYCNTDWYLPRYVLLGYFSGTEDSWGQGTQVTVSS | low polyreactivity
QVQLVESGVGLVQAGGSLRLSCAASGITFREYAMGWYRQAPGKERELVAAIRYSGGSTYYADSVKGRFTISRDNAMNTVYLQMNSLKPEDTAVYYCAADPRRTLSPQLSDYWGLGTQVTVSS | high polyreactivity
QVQLVESGVGLVQAGGSLRLSCAASGNIFGYYAMGWYRQAPGKERELVAAISRSGTRTYYADSVKGRFTISRDNAKNTVYLQMNSLKPEDTAVYYCNAAKSPARFQVNNFDYWGQGTQVTVSS | high polyreactivity
QVQLVESGVGLVQAGGSLRLSCAASGNIFTTYAMGWYRQAPGKERELVAAISRTGGRTSYADSVKGRFTISRDNAKNTVYLQMNSLKPEDTAVYYCAAVPTVRPSAPRARILSDYWGQGTQVTVSS | high polyreactivity
QVQLVESGVGLVQAGGSLRLSCAASGNTFLPYAMGWYRQAPGKERELVAANSWSGGSTYYADSVKGRFTISRDNAKNTVYLQMNSLKPEETAVYYSARRRIGTPAYYYWGHGTQVTVSS | high polyreactivity
QVQLVESGVGLVQAGGSLRLSCAASGRIFCYYAMGWYRQAPGKERELVATINGGGSTNYADSVKGRFTISRDNAKNTVYLQMNSLKPEDTAVYYCAAAQWAYWLLYKYWGQVTQVTVSS | low polyreactivity
QVQLVESGVGLVQAGGSLRLSCAASGRTFAQYAMGCYRQAPGKERELVAVISRCTGRTYYADSVKGRFTISRDNAKNTVYLQMNSLKPEDTALYYCNTSPKLTYALLYVYWGQGTQVNVSS | high polyreactivity
QVQLVESGVGLVQAGGSLRLSCAASGSIFEDYVMGWYRQAPGKERELVADITSGGTTYYADSVKGRFTISRDNAKNTVYLQMNSLKPEDTAVYYCAAEVDWVPFLLDYWGQGTQVTVSS | low polyreactivity
QVQLVESGVGLVQAGGSLRLSCAASGSIFEVYAMGWYRQAPGKEREFVATLSGSGGSTYYADSVKGRFTISRDNAKNTVYLQMNSLKPEDTAVYYCAASIAWYSSFVITCYYWGQGTQVTVSS | low polyreactivity
QVQLVESGVGLVQAGGSLRLSCAASGSIFVYYAMGWYRPAPGKERELVAAINFRGGNTYYADSVKGRFTISRDNAKNTVYLQMNRLKPEDTAVYYCAADYRWKWIGGARYDYWGQGTQVTVSS | low polyreactivity
QVQLVESGVGLVQAGGSLRLSCAASGSIITPYAMGWYRQAPGKERELVAAITSGGSTYADSVKGRFTISRDNAKNTVYLQMNSLKPEDTAVYYCAADRSYVYAGADMYYWGQGTQVTVSS | low polyreactivity

Sequence | polyreactivity (PSR sort gate)
QVQLVESGVGLVQAGGSLRLSCAASGSNFNTYTMGRYRQAPGKERELVAAITWSGGRTYYADSVKGRFTISRDNAKNTVYLQMNSLKPEDTAGYYCAADWGEDYTRDDYWGQGTQVTVSS | low polyreactivity
QVQLVESGVGLVQAGGSLRLSCAASGSTFGGYAMGWYRQAPGKERELVAAITSRSGRTYYADSVKGRFTISRDIAKNTVYLQMNSLKPEDTAVYYCATPQYPGRDYWGQGTQVTVSS | high polyreactivity
QVQLVESGVGLVQAGGSLRLSCAASGSTFSIYALGWYRQAPGKERELVAAISWDSDDTYYADSVNGRFTISRDNAKNTVYLQMNSLKPEDTAVYYCAADRLDRYYYWGQGTQVTVSS | low polyreactivity
QVQLVESGVGLVQAGGSLRLSCAASGSTFSYYAMGWYRQAPGKERELVAAITRSGGRTYYADSVKGRFTISRDNAKNTVYLQMNSLKPEDTAVYYCAALSVGTRRDYWGQGTQVTVSS | low polyreactivity
QVQLVESGVGLVQAGGSLRLSCAASGSTFYAYAMGWNRQAPGKERELVAAISSDGTNYADSVKGRFTISRDNAKNTVYLQMNSLKPDDTAVYYCAADLLLYSSQDNDYWGQGTQVTVSS | low polyreactivity
QVQLVESGVGLVQAGGSLRLSCAASGSTFYRNTMGWYRQAPGKERELVAAINTSGASTYYADSVKGRFTISRDNAKNTVYLQMNSLKPEDTAVYYCAALYRGYTGGYKFYYWGQGTQVTVSS | high polyreactivity
QVQLVESGVGLVQAGGSLRLSCAASGSTLVSYAKGWYIQAPGKERELVASISSGDSTYADSVKGRFTISRDNAKNTVYLQMNSLKPEDTAVYYCNVGNEGSYGFPVTYEYWGQGTQVTVSS | low polyreactivity
QVQLVESGVGLVQAGGSLRLSCAASGYIFYYYAMGWYRQAPGKESELVAAISSTVSTNYADSVKGRFTISRDNAKNTVYLQMNSLKPEDTAVYYCAAAQRVNHVWYDYWGQGTQVTVSS | low polyreactivity
QVQLVESGVGLVQAGGSLRLSCAASGYTFLYYAMGWYRQAPGTERELVAAISSGGRTYYADSVKGRFTISRDNAKNTVYLQMNSLKPEVTAVYYCNTGALIHNGYYGLDYWGQGTQVTVSS | high polyreactivity
QVQLVESGVGLVQAGGSLRLSCAASVYTFFIYAMRWYRHAHGQERELVARIRATGDSTYYADSVKGRFTISRDNAKNTVYLQMNSLKPDDTAVYYFNVRPVYSYREYGYWGQGTQVTVSS | high polyreactivity
QVQLVESGVGLVQAGGSLRLSCAATGSIFRVNAMGWYRQAPGKERELVAGIRWRGGSTYYADSVKGRFTISRDNAKNTVYLQMNSLKPEDTAVYYCAARSYPFIATYGYWGQGTQVTVSS | high polyreactivity
QVQLVESGVGLVQAGGSLRLSCAAYGSTFVSNAMGWDRQAPGKERELVAAISTSGGSTYYADSVKGRFTISRDNAKNTVYLQMNSLKPEDTAVYYCAKLLARGFRIWQDYDYWGQGTQVTVSS | low polyreactivity
QVQLVESGVGLVQAGGSLRLSCADSGLILSKYAKVWYRPAPGKEREFVAAITQTGSRTYYADSVKGRFTSSRDNAKNTVYLQMNSLKPEDTAVYYCNAVNYRSSRDSGYWGQGTQVTVSS | high polyreactivity
QVQLVESGVGLVQAGGSLRLSCASSGYTFFYYSMGWYRQAPGKEREFVAAISTGTGSTYYADSVKGRFTISRDNAKNTVYLQMNSLKPEDTAVYYCAADGTLYYFGLEYDYWGQGTQVTVSS | low polyreactivity
QVQLVESGVGLVQAGGSLRLSCGASGSIFVANVMGWYRQAPGKEREFVATISWNGGNTYYADSVKGRFTISRDNAKNTVYLQMNSLKPEDTAVYYCAAEPLTPSRDRVPYEYYYWGQGTQVTVSS | high polyreactivity
QVQLVESGVGLVQAGGSLRLSCSASGSTFFGNGMGWYRQAPGKERELVAAISGGGSTHYADSVKGRFTISRDNAKNTVYLQMNSLKPEDPAVYYCSPSRDTVGRGPIQRDYWGQGTQVTVSS | low polyreactivity
QVQLVESGVGLVQAGGSLRLSSAASGFTFIYYPMGWYRPAPGKERELVAAITSGGNTYYADSVKGRFTISRDNAKNSVYFQMNSLKPEDTAVYYCNKVPHREWVGGYDYWGQGTQVTVSS | low polyreactivity
QVQLVESGVGLVQAGGSLRLSSAASGSIFAHNAMGWYRQEPGKEREFVATITYSGGTTYYADSVKGRFTISRDNAKNTVYLQMNILKPEDTAVYYCAKLRYPYLFWDDSEYWGQGTQVTVSS | low polyreactivity
QVQLVESGVGLVQAGGSLRLSWAATGSIFPYNDLGWYRKAPGKERELVAAISDSAGTTYYADSVKGRFTISRDNAKNTVDLQMNSLKPEDTAGYYCAADSWDSQVVSYEYWGQGTQVTLSS | low polyreactivity
QVQLVESGVGLVQAGGSLRLTCAASGITFLYNAMGSYRQAPGKERELVAVITRGGITNYADSVKGRFTISRDNAKNTDSLQMYRLNPEDTAVYDWAAYRGIYSRYDYWGQGTQVNVSS | high polyreactivity
QVQLVESGVGLVQAGGSLSLSCAASGPYYFMGWYRQAPGKESELVAAITRRGGRTYYADSVKGRFTISRDNANITVYLQMNSLKPEDTAVYYCAAKYRYHVSGYDYWGQGTQVTVSS | high polyreactivity
